# Source: patent US20160039933A1 (OXFORD BIOTHERAPEUTICS, published 2016)
# B1: PTA001_A4 monoclonal antibody (Fab, V domains shown)
# VH: EVQLQQSVAELVKPGASVKMSCKVSGYTLTDHTIHWMKQRPEQGLEWIGYIYPRDGITGYNEKFKGKATLTADTSSSTAYMQLNSLTSEDSAVYFCARWGYSYRNYAYYYDYWGQGTTLTVSS
# VL: DIVMSQSPSSLAVSVGEKVTMSCKSSQSLLHSSNQKNYLAWYQQKPGQSPKVLIYWASTRESGVPDRFTGSGSGTDFTLTITSVKSEDLAVYYCQQYYSYPWTFGGGTRLEIKR
# Legend:
# [1] = target: T1, cell-surface human Cadherin-17 (human, UniProt Q12864 23-832); assay: flow cytometry (FACS) on LoVo cells, antibody titration 0.005-10 ug/ml
# T1 construct: whole, on cells; Endogenous protein on cells; also called Liver-intestine cadherin; LI-cadherin
# T1 sequence (looked up): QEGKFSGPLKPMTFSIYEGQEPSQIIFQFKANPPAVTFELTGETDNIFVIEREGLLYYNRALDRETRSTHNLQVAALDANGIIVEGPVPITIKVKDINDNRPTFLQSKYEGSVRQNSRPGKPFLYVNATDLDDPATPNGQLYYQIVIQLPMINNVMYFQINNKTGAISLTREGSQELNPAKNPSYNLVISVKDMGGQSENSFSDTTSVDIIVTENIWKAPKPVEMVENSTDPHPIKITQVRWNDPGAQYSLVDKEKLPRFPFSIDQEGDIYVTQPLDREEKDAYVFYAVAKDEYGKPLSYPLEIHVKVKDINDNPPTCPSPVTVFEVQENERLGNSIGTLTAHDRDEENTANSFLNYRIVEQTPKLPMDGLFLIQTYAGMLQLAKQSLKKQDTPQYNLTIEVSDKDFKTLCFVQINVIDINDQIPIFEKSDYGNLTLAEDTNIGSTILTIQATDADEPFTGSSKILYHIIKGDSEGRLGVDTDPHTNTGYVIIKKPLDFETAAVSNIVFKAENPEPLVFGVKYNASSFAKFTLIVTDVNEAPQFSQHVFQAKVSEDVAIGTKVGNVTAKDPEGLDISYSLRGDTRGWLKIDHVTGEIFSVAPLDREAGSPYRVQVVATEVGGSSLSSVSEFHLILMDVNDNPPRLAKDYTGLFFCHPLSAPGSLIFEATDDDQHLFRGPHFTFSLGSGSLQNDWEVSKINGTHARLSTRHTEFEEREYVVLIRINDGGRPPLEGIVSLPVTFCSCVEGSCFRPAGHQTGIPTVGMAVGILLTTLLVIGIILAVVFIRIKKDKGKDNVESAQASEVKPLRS
# [2] = target: T2, Cadherin-17 protein (92 kDa) in lysates of colorectal cancer cell lines (human, UniProt Q12864 23-832); assay: Western blot of colorectal cancer cell line lysates, antibody diluted 1:500
# T2 construct: Same natural protein as m15, here denatured on a Western blot (band at 92 kDa); also called CDH17
# T2 sequence (looked up): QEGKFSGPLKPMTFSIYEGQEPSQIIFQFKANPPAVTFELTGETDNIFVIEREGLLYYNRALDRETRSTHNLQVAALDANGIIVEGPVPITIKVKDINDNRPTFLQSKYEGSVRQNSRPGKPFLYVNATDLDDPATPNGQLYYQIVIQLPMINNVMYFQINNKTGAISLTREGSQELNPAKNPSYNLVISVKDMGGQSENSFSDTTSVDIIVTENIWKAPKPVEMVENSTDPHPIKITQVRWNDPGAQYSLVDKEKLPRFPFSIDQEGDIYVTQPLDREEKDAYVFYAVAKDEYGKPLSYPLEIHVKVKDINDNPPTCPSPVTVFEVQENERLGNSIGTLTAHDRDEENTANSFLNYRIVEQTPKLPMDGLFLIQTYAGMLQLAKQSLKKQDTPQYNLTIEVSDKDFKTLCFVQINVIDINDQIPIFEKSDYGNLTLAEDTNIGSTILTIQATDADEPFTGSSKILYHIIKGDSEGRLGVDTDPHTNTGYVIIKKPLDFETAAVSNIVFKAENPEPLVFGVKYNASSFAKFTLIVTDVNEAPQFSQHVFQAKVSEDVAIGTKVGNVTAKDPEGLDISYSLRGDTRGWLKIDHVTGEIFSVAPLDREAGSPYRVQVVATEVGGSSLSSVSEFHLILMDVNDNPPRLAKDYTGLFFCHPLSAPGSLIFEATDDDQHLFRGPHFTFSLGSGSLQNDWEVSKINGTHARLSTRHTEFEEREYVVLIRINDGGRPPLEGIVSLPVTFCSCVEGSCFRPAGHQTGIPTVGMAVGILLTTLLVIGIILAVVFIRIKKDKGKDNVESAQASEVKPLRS
# Protocol: Snap frozen cell pellets were lysed in modified RIPA buffer (50 mM Tris-HCl, pH 7.4, 1% NP-40, 0.25% Na-deoxycholate, 150 mM NaCl, 1 mM EDTA) containing protease inhibitors (Roche) and cleared by spinning down at 18,000 g for 15 min at 4 C. The 4×LDS sample loading buffer (Invitrogen Inc.) was added to the cleared lysate to a final concentration of 1×; sample was heated for 10 min at 70° C. and kept at −80° C. afterwards. Before loading on a gel samples were re-heated.
# Membrane was incubated with animal-free blocker (Vector) and probed with anti-Cadherin-17 antibody in animal-free blocker at 1:500 dilution, at 4 C, for 14-18 h, rotating. The secondary was anti-mouse DyLight® 488 conjugate (Pierce).
# A clear signal was detected at a size corresponding to the Cadherin-17 protein (92 kDa) in 11 of the 14 chosen colorectal cell lines for all 5 Cadherin-17 antibodies (PTA001_A3, PTA001_A4, PTA001_A6, PTA001_A8 and PTA001_A9). […] Cell lines were carefully selected for different genetic backgrounds relevant to the initiation and progression of CRC (RER+=replication error positive tumor phenotype; RER−=replication error deficient tumor phenotype; p53 wild type or mutant and APC wild type or mutant genotype).
binder,measurement,setting,value
B1,binding result,[1],binds
same,binding result,[2],binds
